# Experiments:
# [1] = biological target: human Y1 receptor (human) (UniProt P25929); test: cell-based or functional assay
# [2] = biological target: human Y4 receptor (human) (UniProt P50391); test: cell-based or functional assay
# human Y4 receptor (human), sequence (P50391 whole entry): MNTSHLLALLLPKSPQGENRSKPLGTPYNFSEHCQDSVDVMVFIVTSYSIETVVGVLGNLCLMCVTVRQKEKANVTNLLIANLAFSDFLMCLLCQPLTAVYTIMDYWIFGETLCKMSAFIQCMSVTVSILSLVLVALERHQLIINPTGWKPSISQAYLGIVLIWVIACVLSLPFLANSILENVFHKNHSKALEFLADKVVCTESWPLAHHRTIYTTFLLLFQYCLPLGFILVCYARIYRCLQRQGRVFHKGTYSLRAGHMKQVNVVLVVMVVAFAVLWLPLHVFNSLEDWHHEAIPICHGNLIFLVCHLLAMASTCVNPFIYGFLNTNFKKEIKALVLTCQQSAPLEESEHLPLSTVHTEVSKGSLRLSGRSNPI
# human Y1 receptor (human), sequence (P25929 whole entry): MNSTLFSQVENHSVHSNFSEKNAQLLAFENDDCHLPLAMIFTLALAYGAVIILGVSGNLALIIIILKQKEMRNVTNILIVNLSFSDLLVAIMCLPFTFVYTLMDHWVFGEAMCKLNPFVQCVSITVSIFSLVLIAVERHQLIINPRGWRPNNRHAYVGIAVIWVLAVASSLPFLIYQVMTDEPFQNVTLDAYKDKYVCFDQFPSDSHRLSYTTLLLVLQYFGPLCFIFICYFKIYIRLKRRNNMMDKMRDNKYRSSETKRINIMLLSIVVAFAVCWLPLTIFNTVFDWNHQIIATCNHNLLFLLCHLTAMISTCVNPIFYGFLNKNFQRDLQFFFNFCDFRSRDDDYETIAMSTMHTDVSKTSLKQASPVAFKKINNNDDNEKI
"EC50, Actone functional potency assay [1] [nM]","EC50, Actone functional potency assay [2] [nM]",Substance
> 1000,–,"4-N{alpha}-(3-Methylbutanoyl)-7-N{Epsilon}-[2-[2-[2-[[2-[2-[2-[[2-[2-[2-[[(4S)-4-carboxy-4-(16-sulfohexadecanoylamino)butanoyl]amino]ethoxy]ethoxy]acetyl]-amino]ethoxy]ethoxy]acetyl]amino]ethoxy]ethoxy]acetyl]-[Arg4,Lys7,Gln18,Trp30,NMeArg35]hPYY(4-36) (peptide)"
> 1000,–,"4-N{alpha}-(3-Methylbutanoyl)-7-N{Epsilon}-[2-[2-[2-[[2-[2-[2-[[(4S)-4-carboxy-4-(14-carboxy-tetracanoylamino)butanoyl]amino]ethoxy]ethoxy]acetyl]]amino]ethoxy]-ethoxy]acetyl]-[Arg4,Lys7,Gln18,Trp30,NMeArg35]hPYY(4-36) (peptide)"
> 1000,–,"4-N{alpha}-(3-Methylbutanoyl)-7-N{Epsilon}-[2-[2-[2-[[2-[2-[2-[[(4S)-4-carboxy-4-(14-sulfotetradecanoylamino)butanoyl]amino]ethoxy]ethoxy]acetyl]]amino]ethoxy]-ethoxy]acetyl]-[Arg4,Lys7,Gln18,Trp30,NMeArg35]hPYY(4-36) (peptide)"
> 1000,–,"4-N{alpha}-(3-Methylbutanoyl)-7-N{Epsilon}-[2-[2-[2-[[2-[2-[2-[[(4S)-4-carboxy-4-(15-carboxypentadecanoylamino)butanoyl]amino]ethoxy]ethoxy]acetyl]amino]-ethoxy]ethoxy]acetyl]-[Arg4,Lys7,Gln18,Trp30,NMeArg35]hPYY(4-36) (peptide)"
> 1000,–,"4-N{alpha}-(3-Methylbutanoyl)-7-N{Epsilon}-[2-[2-[2-[[2-[2-[2-[[(4S)-4-carboxy-4-(16-carboxy-hexadecanoylamino)butanoyl]amino]ethoxy]ethoxy]acetyl]]amino]ethoxy]-ethoxy]acetyl]-[Arg4,Lys7,Gln18,Trp30,NMeArg35]hPYY(4-36) (peptide)"
–,> 1000,"4-N{alpha}-(3-Methylbutanoyl)-7-N{Epsilon}-[2-[2-[2-[[2-[2-[2-[[(4S)-4-carboxy-4-(16-sulfohexadecanoylamino)-butanoyl]amino]ethoxy]ethoxy]acetyl]amino]ethoxy]-ethoxy]acetyl]-[Arg4,Lys7,D-isoAsp11,Gln18,Trp30,NMeArg35]hPYY(4-36) (peptide)"
> 1000,–,"4-N{alpha}-(3-Methylbutanoyl)-7-N{Epsilon}-[2-[2-[2-[[2-[2-[2-[[(4S)-4-carboxy-4-(16-sulfohexadecanoylamino)-butanoyl]amino]ethoxy]ethoxy]acetyl]amino]ethoxy]-ethoxy]acetyl]-[Arg4,Lys7,Gln18,Trp30,NMeArg35]hPYY(4-36) (peptide)"
> 1000,> 1000,"4-N{alpha}-(3-Methylbutanoyl)-7-N{Epsilon}-[2-[2-[2-[[2-[2-[2-[[(4S)-4-carboxy-4-(16-sulfohexadecanoylamino)butanoyl]amino]ethoxy]ethoxy]acetyl]amino]-ethoxy]ethoxy]acetyl]-[Lys7,Gln18,Trp30,NMeArg35]hPYY(4-36) (peptide)"
> 1000,–,"4-N{alpha}-(3-Methylbutanoyl)-7-N{Epsilon}-[2-[2-[2-[[2-[2-[2-[[(4S)-4-carboxy-4-(17-carboxyheptadecanoylamino)butanoyl]amino]ethoxy]ethoxy]acetyl]amino]ethoxy]-ethoxy]acetyl]-[Arg4,Lys7,Gln18,Trp30,NMeArg35]hPYY(4-36) (peptide)"
–,> 1000,"4-N{alpha}-(3-Methylbutanoyl)-7-N{Epsilon}-[2-[2-[2-[[2-[2-[2-[[(4S)-4-carboxy-4-[[(4S)-4-carboxy-4-(16-sulfohexadecanoylamino)butanoyl]amino]butanoyl]amino]-ethoxy]ethoxy]acetyl]amino]ethoxy]ethoxy]acetyl]-[Lys7,Gln18,Trp30,NMeArg35] hPYY(4-36) (peptide)"
> 1000,–,"4-N{alpha}-(3-Methylbutanoyl)-7-N{Epsilon}-[4-[3-[2-[2-[3-[[4-[3-[2-[2-[3-[[(4S)-4-carboxy-4-(16-sulfohexadecanoylamino)butanoyl]amino]propoxy]ethoxy]-ethoxy]propylamino]-4-oxobutanoyl]amino]propoxy]ethoxy]ethoxy]propylamino]-4-oxobutanoyl]-[Arg4,Lys7,Gln18,Trp30,NMeArg35]hPYY(4-36) (peptide)"
> 1000,–,"4-N{alpha}-(3-Methylbutanoyl)-7-N{Epsilon}-[4-[3-[2-[2-[3-[[(4S)-4-carboxy-4-(16-sulfohexadecanoylamino)butanoyl]amino]propoxy]ethoxy]ethoxy]propylamino]-4-oxobutanoyl]-[Arg4,Lys7,Gln18,Trp30,NMeArg35]hPYY(4-36) (peptide)"
> 1000,–,"4-N{alpha}-(3-Methylbutanoyl)-7-N{Epsilon}-[(2S)-2-amino-6-[[2-[2-[2-[[(4S)-4-carboxy-4-(16-sulfohexadecanoylamino)butanoyl]amino]ethoxy]ethoxy]acetyl]-amino]hexanoyl]]-[Arg4,Lys7,Gln18,Trp30,NMeArg35]hPYY(4-36) (peptide)"
> 1000,–,"4-N{alpha}-(3-methyl-pentanoyl)-7-N{Epsilon}-[2-[2-[2-[[2-[2-[2-[[(4S)-4-carboxy-4-(16-sulfohexadecanoylamino)butanoyl]amino]ethoxy]ethoxy]acetyl]amino]-ethoxy]ethoxy]acetyl]-[Lys7,Gln18,Trp30,NMeArg35]hPYY(4-36) (peptide)"
> 1000,–,"4-N{alpha}-(hexanoyl)-7-N{Epsilon}-[2-[2-[2-[[2-[2-[2-[[(4S)-4-carboxy-4-(16-sulfohexadecanoylamino)butanoyl]amino]ethoxy]ethoxy]acetyl]amino]ethoxy]-ethoxy]acetyl]-[Arg4,Lys7,Gln18,Trp30,NMeArg35]hPYY(4-36) (peptide)"
> 1000,–,"7-N{Epsilon}-[2-[2-[2-[[2-[2-[2-[[2-[2-[2-[[2-[2-[2-[4-[16-(1H-tetrazol-5-yl)-hexadecanoylsulfamoyl]butanoylamino]ethoxy]ethoxy]acetyl]amino]ethoxy]-ethoxy]acetyl]amino]ethoxy]ethoxy]acetyl]amino]ethoxy]ethoxy]acetyl]-[Lys7,Gln18,Trp30,NMeArg35]hPYY(3-36) (peptide)"
> 1000,–,"7-N{Epsilon}-[2-[2-[2-[[2-[2-[2-[[(4S)-4-carboxy-4-(16-sulfohexadecanoylamino)-butanoyl]amino]ethoxy]ethoxy]acetyl]amino]ethoxy]ethoxy]acetyl]-[Arg4,Lys7,Gln18, Trp30,NMeArg35]hPYY(3-36) (peptide)"
> 1000,–,"7-N{Epsilon}-[2-[2-[2-[[2-[2-[2-[[(4S)-4-carboxy-4-(16-sulfohexadecanoylamino)-butanoyl]amino]ethoxy]ethoxy]acetyl]amino]ethoxy]ethoxy]acetyl]-[Lys7,Gln18, Trp30,NMeArg35]hPYY(3-36) (peptide)"

# — patent publication US20150152150A1
